B1: PSPC1_HUMAN (protein, UniProt Q8WXF1 1-523, looked up)
Paraspeckle component 1: MMLRGNLKQVRIEKNPARLRALESAVGESEPAAAAAMALALAGEPAPPAPAPPEDHPDEEMGFTIDIKSFLKPGEKTYTQRCRLFVGNLPTDITEEDFKRLFERYGEPSEVFINRDRGFGFIRLESRTLAEIAKAELDGTILKSRPLRIRFATHGAALTVKNLSPVVSNELLEQAFSQFGPVEKAVVVVDDRGRATGKGFVEFAAKPPARKALERCGDGAFLLTTTPRPVIVEPMEQFDDEDGLPEKLMQKTQQYHKEREQPPRFAQPGTFEFEYASRWKALDEMEKQQREQVDRNIREAKEKLEAEMEAARHEHQLMLMRQDLMRRQEELRRLEELRNQELQKRKQIQLRHEEEHRRREEEMIRHREQEELRRQQEGFKPNYMENREQEMRMGDMGPRGAINMGDAFSPAPAGNQGPPPMMGMNMNNRATIPGPPMGPGPAMGPEGAANMGTPMMPDNGAVHNDRFPQGPPSQMGSPMGSRTGSETPQAPMSGVGPVSGGPGGFGRGSQGGNFEGPNKRRRY
B2: ERP44_HUMAN (protein, UniProt Q9BS26 30-406, looked up)
Endoplasmic reticulum …: EITSLDTENIDEILNNADVALVNFYADWCRFSQMLHPIFEEASDVIKEEFPNENQVVFARVDCDQHSDIAQRYRISKYPTLKLFRNGMMMKREYRGQRSVKALADYIRQQKSDPIQEIRDLAEITTLDRSKRNIIGYFEQKDSDNYRVFERVANILHDDCAFLSAFGDVSKPERYSGDNIIYKPPGHSAPDMVYLGAMTNFDVTYNWIQDKCVPLVREITFENGEELTEEGLPFLILFHMKEDTESLEIFQNEVARQLISEKGTINFLHADCDKFRHPLLHIQKTPADCPVIAIDSFRHMYVFGDFKDVLIPGKLKQFVFDLHSGKLHREFHHGPDPTDTAPGEQAQDVASSPPESSFQKLAPSEYRYTLLRDRDEL
B3: TCPD_HUMAN (protein, UniProt P50991 2-539, looked up)
T-complex protein 1 subunit …: PENVAPRSGATAGAAGGRGKGAYQDRDKPAQIRFSNISAAKAVADAIRTSLGPKGMDKMIQDGKGDVTITNDGATILKQMQVLHPAARMLVELSKAQDIEAGDGTTSVVIIAGSLLDSCTKLLQKGIHPTIISESFQKALEKGIEILTDMSRPVELSDRETLLNSATTSLNSKVVSQYSSLLSPMSVNAVMKVIDPATATSVDLRDIKIVKKLGGTIDDCELVEGLVLTQKVSNSGITRVEKAKIGLIQFCLSAPKTDMDNQIVVSDYAQMDRVLREERAYILNLVKQIKKTGCNVLLIQKSILRDALSDLALHFLNKMKIMVIKDIEREDIEFICKTIGTKPVAHIDQFTADMLGSAELAEEVNLNGSGKLLKITGCASPGKTVTIVVRGSNKLVIEEAERSIHDALCVIRCLVKKRALIAGGGAPEIELALRLTEYSRTLSGMESYCVRAFADAMEVIPSTLAENAGLNPISTVTELRNRHAQGEKTAGINVRKGGISNILEELVVQPLLVSVSALTLATETVRSILKIDDVVNTR
B4: SNW1_HUMAN (protein, UniProt Q13573 2-536, looked up)
SNW domain-containing protein …: ALTSFLPAPTQLSQDQLEAEEKARSQRSRQTSLVSSRREPPPYGYRKGWIPRLLEDFGDGGAFPEIHVAQYPLDMGRKKKMSNALAIQVDSEGKIKYDAIARQGQSKDKVIYSKYTDLVPKEVMNADDPDLQRPDEEAIKEITEKTRVALEKSVSQKVAAAMPVRAADKLAPAQYIRYTPSQQGVAFNSGAKQRVIRMVEMQKDPMEPPRFKINKKIPRGPPSPPAPVMHSPSRKMTVKEQQEWKIPPCISNWKNAKGYTIPLDKRLAADGRGLQTVHINENFAKLAEALYIADRKAREAVEMRAQVERKMAQKEKEKHEEKLREMAQKARERRAGIKTHVEKEDGEARERDEIRHDRRKERQHDRNLSRAAPDKRSKLQRNENRDISEVIALGVPNPRTSNEVQYDQRLFNQSKGMDSGFAGGEDEIYNVYDQAWRGGKDMAQSIYRPSKNLDKDMYGDDLEARIKTNRFVPDKEFSGSDRRQRGREGPVQFEEDPFGLDKFLEEAKQHGGSKRPSDSSRPKEHEHEGKKRRKE
B5: LAP2A_HUMAN (protein, UniProt P42166 2-694, looked up)
Lamina-associated polypeptide …: PEFLEDPSVLTKDKLKSELVANNVTLPAGEQRKDVYVQLYLQHLTARNRPPLPAGTNSKGPPDFSSDEEREPTPVLGSGAAAAGRSRAAVGRKATKKTDKPRQEDKDDLDVTELTNEDLLDQLVKYGVNPGPIVGTTRKLYEKKLLKLREQGTESRSSTPLPTISSSAENTRQNGSNDSDRYSDNEEGKKKEHKKVKSTRDIVPFSELGTTPSGGGFFQGISFPEISTRPPLGSTELQAAKKVHTSKGDLPREPLVATNLPGRGQLQKLASERNLFISCKSSHDRCLEKSSSSSSQPEHSAMLVSTAASPSLIKETTTGYYKDIVENICGREKSGIQPLCPERSHISDQSPLSSKRKALEESESSQLISPPLAQAIRDYVNSLLVQGGVGSLPGTSNSMPPLDVENIQKRIDQSKFQETEFLSPPRKVPRLSEKSVEERDSGSFVAFQNIPGSELMSSFAKTVVSHSLTTLGLEVAKQSQHDKIDASELSFPFHESILKVIEEEWQQVDRQLPSLACKYPVSSREATQILSVPKVDDEILGFISEATPLGGIQAASTESCNQQLDLALCRAYEAAASALQIATHTAFVAKAMQADISQAAQILSSDPSRTHQALGILSKTYDAASYICEAAFDEVKMAAHTMGNATVGRRYLWLKDCKINLASKNKLASTPFKGGTLFGGEVCKVIKKRGNKH
B6: ASNS_HUMAN (protein, UniProt P08243 2-561, looked up)
Asparagine synthetase …: CGIWALFGSDDCLSVQCLSAMKIAHRGPDAFRFENVNGYTNCCFGFHRLAVVDPLFGMQPIRVKKYPYLWLCYNGEIYNHKKMQQHFEFEYQTKVDGEIILHLYDKGGIEQTICMLDGVFAFVLLDTANKKVFLGRDTYGVRPLFKAMTEDGFLAVCSEAKGLVTLKHSATPFLKVEPFLPGHYEVLDLKPNGKVASVEMVKYHHCRDVPLHALYDNVEKLFPGFEIETVKNNLRILFNNAVKKRLMTDRRIGCLLSGGLDSSLVAATLLKQLKEAQVQYPLQTFAIGMEDSPDLLAARKVADHIGSEHYEVLFNSEEGIQALDEVIFSLETYDITTVRASVGMYLISKYIRKNTDSVVIFSGEGSDELTQGYIYFHKAPSPEKAEEESERLLRELYLFDVLRADRTTAAHGLELRVPFLDHRFSSYYLSLPPEMRIPKNGIEKHLLRETFEDSNLIPKEILWRPKEAFSDGITSVKNSWFKILQEYVEHQVDDAMMANAAQKFPFNTPKTKEGYYYRQVFERHYPGRADWLSHYWMPKWINATDPSARTLTHYKSAVKA
B7: K2C1B_HUMAN (protein, UniProt Q7Z794 1-578, looked up)
Keratin, type II cytoskeletal …: MSHQFSSQSAFSSMSRRVYSTSSSAGSGGGSPAVGSVCYARGRCGGGGYGIHGRGFGSRSLYNLGGSRSISINLMGRSTSGFCQGGGVGGFGGGRGFGVGSTGAGGFGGGGFGGAGFGTSNFGLGGFGPYCPPGGIQEVTINQSLLEPLHLEVDPEIQRIKTQEREQIMVLNNKFASFIDKVRFLEQQNQVLQTKWELLQQVNTSTGTNNLEPLLENYIGDLRRQVDLLSAEQMRQNAEVRSMQDVVEDYKSKYEDEINKRTGSENDFVVLKKDVDAAYVSKVDLESRVDTLTGEVNFLKYLFLTELSQVQTHISDTNVILSMDNNRSLDLDSIIDAVRTQYELIAQRSKDEAEALYQTKYQELQITAGRHGDDLKNSKMEIAELNRTVQRLQAEISNVKKQIEQMQSLISDAEERGEQALQDAWQKLQDLEEALQQSKEELARLLRDYQAMLGVKLSLDVEIATYRQLLEGEESRMSGELQSHVSISVQNSQVSVNGGAGGGGSYGSGGYGGGSGGGYGGGRSYRGGGARGRSGGGYGSGCGGGGGSYGGSGRSGRGSSRVQIIQTSTNTSHRRILE
B8: PDIP3_HUMAN (protein, UniProt Q9BY77 2-421, looked up)
Polymerase delta-interacting …: ADISLDELIRKRGAAAKGRLNARPGVGGVRSRVGIQQGLLSQSTRTATFQQRFDARQKIGLSDARLKLGVKDAREKLLQKDARFRIKGKVQDAREMLNSRKQQTTVPQKPRQVADAREKISLKRSSPAAFINPPIGTVTPALKLTKTIQVPQQKAMAPLHPHPAGMRINVVNNHQAKQNLYDLDEDDDGIASVPTKQMKFAASGGFLHHMAGLSSSKLSMSKALPLTKVVQNDAYTAPALPSSIRTKALTNMSRTLVNKEEPPKELPAAEPVLSPLEGTKMTVNNLHPRVTEEDIVELFCVCGALKRARLVHPGVAEVVFVKKDDAITAYKKYNNRCLDGQPMKCNLHMNGNVITSDQPILLRLSDSPSMKKESELPRRVNSASSSNPPAEVDPDTILKALFKSSGASVTTQPTEFKIKL
B9: ODBA_HUMAN (protein, UniProt P12694 46-445, looked up)
2-oxoisovalerate …: SSLDDKPQFPGASAEFIDKLEFIQPNVISGIPIYRVMDRQGQIINPSEDPHLPKEKVLKLYKSMTLLNTMDRILYESQRQGRISFYMTNYGEEGTHVGSAAALDNTDLVFGQYREAGVLMYRDYPLELFMAQCYGNISDLGKGRQMPVHYGCKERHFVTISSPLATQIPQAVGAAYAAKRANANRVVICYFGEGAASEGDAHAGFNFAATLECPIIFFCRNNGYAISTPTSEQYRGDGIAARGPGYGIMSIRVDGNDVFAVYNATKEARRRAVAENQPFLIEAMTYRIGHHSTSDDSSAYRSVDEVNYWDKQDHPISRLRHYLLSQGWWDEEQEKAWRKQSRRKVMEAFEQAERKPKPNPNLLFSDVYQEMPAQLRKQQESLARHLQTYGEHYPLDHFDK
B10: CLPB_HUMAN (protein, UniProt Q9H078 37-707, looked up)
Mitochondrial disaggregase: VTTGSLGEPQWLRVATGGRPGTSPALFSGRGAATGGRQGGRFDTKCLAAATWGRLPGPEETLPGQDSWNGVPSRAGLGMCALAAALVVHCYSKSPSNKDAALLEAARANNMQEVSRLLSEGADVNAKHRLGWTALMVAAINRNNSVVQVLLAAGADPNLGDDFSSVYKTAKEQGIHSLEDGGQDGASRHITNQWTSALEFRRWLGLPAGVLITREDDFNNRLNNRASFKGCTALHYAVLADDYRTVKELLDGGANPLQRNEMGHTPLDYAREGEVMKLLRTSEAKYQEKQRKREAEERRRFPLEQRLKEHIIGQESAIATVGAAIRRKENGWYDEEHPLVFLFLGSSGIGKTELAKQTAKYMHKDAKKGFIRLDMSEFQERHEVAKFIGSPPGYVGHEEGGQLTKKLKQCPNAVVLFDEVDKAHPDVLTIMLQLFDEGRLTDGKGKTIDCKDAIFIMTSNVASDEIAQHALQLRQEALEMSRNRIAENLGDVQISDKITISKNFKENVIRPILKAHFRRDEFLGRINEIVYFLPFCHSELIQLVNKELNFWAKRAKQRHNITLLWDREVADVLVDGYNVHYGARSIKHEVERRVVNQLAAAYEQDLLPGGCTLRITVEDSDKQLLKSPELPSPQAEKRLPKLRLEIIDKDSKTRRLDIRAPLHPEKVCNTI

Each molecule was assayed on KDM4A-I71AzF (assay: CASI: photo-crosslinking with HEK293T cell extracts, StrepTactin enrichment and LC-MS/MS proteomics). Conditions: sheet "Final results but with 0.01".
Type: binding, human
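Further: lysates from HEK293T cells pretreated with a KDM4 inhibitor to raise proteome methylation, affinity-purified after ±UV, gel-resolved, trypsin-digested, with exclusive unique peptides per protein averaged per condition.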

Molecule	Fold change (+UV/-UV)
B1	1.667
B2	0.5
B3	0
B4	2
B5	0
B6	2
B7	4
B8	1
B9	1
B10	2
